According to paper PMC9482650, “Quantitative fragmentomics allow affinity mapping of interactomes” (Nature Communications, 2022):

What was measured:
Assay in all cases: holdup assay
Parameters in all cases: key: below the threshold = too weak to quantify, mostly under pKd 3.1 to 4
SNX27, Q96L92 = target: SNX27, Q96L92
IL16_4, Q14005 = target: IL16_4, Q14005
TJP2_1, Q9UDY2 = target: TJP2_1, Q9UDY2
PDZD2_2, O15018 = target: T1, PDZD2_2, O15018
T1 sequence (O15018 329-429, limits assumed, looked up): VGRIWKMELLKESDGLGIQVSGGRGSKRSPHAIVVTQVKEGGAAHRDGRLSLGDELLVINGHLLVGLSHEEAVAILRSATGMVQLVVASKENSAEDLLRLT

GRIP2_4, Q9C0E4 = target: GRIP2_4, Q9C0E4
Sequence of GRIP2_4, Q9C0E4 (Q9C0E4 446-548): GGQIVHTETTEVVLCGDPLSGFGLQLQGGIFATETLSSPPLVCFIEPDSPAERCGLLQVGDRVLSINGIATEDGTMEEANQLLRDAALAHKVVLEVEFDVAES

HTRA3, P83110 = target: T2, HTRA3, P83110
T2 sequence (P83110 354-453, limits assumed, looked up): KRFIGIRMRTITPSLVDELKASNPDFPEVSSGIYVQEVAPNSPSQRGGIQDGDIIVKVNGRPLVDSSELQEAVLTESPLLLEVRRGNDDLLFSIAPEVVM

LNX2_3, Q8N448 = target: T3, LNX2_3, Q8N448
T3 sequence (Q8N448 463-564, limits assumed, looked up): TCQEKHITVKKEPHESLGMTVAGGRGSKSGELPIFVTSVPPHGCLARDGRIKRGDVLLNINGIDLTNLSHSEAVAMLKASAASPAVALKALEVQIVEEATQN

GRIP2_6, Q9C0E4 = target: GRIP2_6, Q9C0E4
Sequence of GRIP2_6, Q9C0E4 (Q9C0E4 648-740): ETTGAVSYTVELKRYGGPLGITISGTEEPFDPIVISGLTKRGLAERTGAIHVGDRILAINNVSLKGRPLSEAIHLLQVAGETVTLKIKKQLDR

PARD3_3, Q8TEW0 = target: PARD3_3, Q8TEW0
Sequence of PARD3_3, Q8TEW0 (Q8TEW0 582-685): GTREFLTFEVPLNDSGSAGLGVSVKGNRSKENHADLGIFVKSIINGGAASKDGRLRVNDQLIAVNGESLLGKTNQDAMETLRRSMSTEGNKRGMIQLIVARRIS

SYNJ2BP, P57105 = target: T4, SYNJ2BP, P57105
T4 sequence (P57105 8-110, limits assumed, looked up): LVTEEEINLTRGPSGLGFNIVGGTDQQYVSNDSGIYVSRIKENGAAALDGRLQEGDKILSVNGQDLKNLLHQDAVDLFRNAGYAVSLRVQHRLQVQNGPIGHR

MAST2, Q6P0Q8 = target: MAST2, Q6P0Q8
Sequence of MAST2, Q6P0Q8 (Q6P0Q8 1099-1202): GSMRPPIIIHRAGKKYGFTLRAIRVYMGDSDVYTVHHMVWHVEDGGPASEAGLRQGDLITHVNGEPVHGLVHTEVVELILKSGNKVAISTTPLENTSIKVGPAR

GRID2IP_2, A4D2P6 = target: GRID2IP_2, A4D2P6
Sequence of GRID2IP_2, A4D2P6 (A4D2P6 272-370): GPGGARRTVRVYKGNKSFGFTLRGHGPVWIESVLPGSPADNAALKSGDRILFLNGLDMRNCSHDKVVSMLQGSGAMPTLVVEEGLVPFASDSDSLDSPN

GRIP1_4, Q9Y3R0 = target: T5, GRIP1_4, Q9Y3R0
T5 sequence (Q9Y3R0 467-571, limits assumed, looked up): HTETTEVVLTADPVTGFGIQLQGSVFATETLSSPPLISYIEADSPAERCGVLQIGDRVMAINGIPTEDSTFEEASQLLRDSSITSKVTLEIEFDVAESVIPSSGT

DLG3_1, Q92796 = target: T6, DLG3_1, Q92796
T6 sequence (Q92796 125-227, limits assumed, looked up): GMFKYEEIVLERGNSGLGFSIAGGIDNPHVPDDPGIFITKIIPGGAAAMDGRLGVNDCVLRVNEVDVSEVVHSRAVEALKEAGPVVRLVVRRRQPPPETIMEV

MAGI1_1, Q96QZ7 = target: MAGI1_1, Q96QZ7
Sequence of MAGI1_1, Q96QZ7 (Q96QZ7 1-106): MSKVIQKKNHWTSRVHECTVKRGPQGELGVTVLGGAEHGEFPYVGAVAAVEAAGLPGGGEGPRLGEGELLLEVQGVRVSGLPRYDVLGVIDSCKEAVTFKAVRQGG

LNX1_2, Q8TBB1 = target: LNX1_2, Q8TBB1
Sequence of LNX1_2, Q8TBB1 (Q8TBB1 371-470): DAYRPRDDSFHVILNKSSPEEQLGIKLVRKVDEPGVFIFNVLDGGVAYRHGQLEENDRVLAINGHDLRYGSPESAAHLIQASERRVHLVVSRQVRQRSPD

DFNB31_1, Q9P202 = target: T7, DFNB31_1, Q9P202
T7 sequence (Q9P202 135-233, limits assumed, looked up): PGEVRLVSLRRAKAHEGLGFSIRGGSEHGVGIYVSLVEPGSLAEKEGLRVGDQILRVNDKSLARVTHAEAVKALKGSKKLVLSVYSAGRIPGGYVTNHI

ARHGEF11, O15085 = target: T8, ARHGEF11, O15085
T8 sequence (O15085 42-136, limits assumed, looked up): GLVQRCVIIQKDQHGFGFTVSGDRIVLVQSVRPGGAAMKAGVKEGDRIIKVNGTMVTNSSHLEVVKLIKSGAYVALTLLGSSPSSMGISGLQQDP

NHERF4_4, Q86UT5 = target: NHERF4_4, Q86UT5
Sequence of NHERF4_4, Q86UT5 (Q86UT5 464-550): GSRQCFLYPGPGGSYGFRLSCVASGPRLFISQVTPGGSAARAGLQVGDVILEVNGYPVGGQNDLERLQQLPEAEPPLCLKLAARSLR

IL16_1, Q14005 = target: IL16_1, Q14005
Sequence of IL16_1, Q14005 (Q14005 210-306): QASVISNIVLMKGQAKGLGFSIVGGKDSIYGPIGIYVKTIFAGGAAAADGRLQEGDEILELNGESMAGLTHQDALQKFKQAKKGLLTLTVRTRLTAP

FRMPD3, Q5JV73 = target: FRMPD3, Q5JV73
Sequence of FRMPD3, Q5JV73 (Q5JV73 12-100): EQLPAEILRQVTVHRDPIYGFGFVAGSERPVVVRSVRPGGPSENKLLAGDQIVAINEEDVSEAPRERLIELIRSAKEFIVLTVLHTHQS

DLG4_2, P78352 = target: DLG4_2, P78352
Sequence of DLG4_2, P78352 (P78352 155-259): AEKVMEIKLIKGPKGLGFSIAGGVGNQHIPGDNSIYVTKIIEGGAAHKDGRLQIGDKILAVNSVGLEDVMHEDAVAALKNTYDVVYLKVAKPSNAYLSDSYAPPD

MAGI3_2, Q5TCQ9 = target: MAGI3_2, Q5TCQ9
Sequence of MAGI3_2, Q5TCQ9 (Q5TCQ9 398-503): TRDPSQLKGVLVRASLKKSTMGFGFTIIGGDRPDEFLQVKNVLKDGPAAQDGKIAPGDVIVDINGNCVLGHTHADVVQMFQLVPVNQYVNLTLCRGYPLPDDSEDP

APBA3_1, O96018 = target: T9, APBA3_1, O96018
T9 sequence (O96018 389-490, limits assumed, looked up): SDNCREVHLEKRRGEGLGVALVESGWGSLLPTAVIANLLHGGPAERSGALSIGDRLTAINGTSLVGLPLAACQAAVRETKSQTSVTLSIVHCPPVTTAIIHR

PTPN3, P26045 = target: PTPN3, P26045
Sequence of PTPN3, P26045 (P26045 505-587): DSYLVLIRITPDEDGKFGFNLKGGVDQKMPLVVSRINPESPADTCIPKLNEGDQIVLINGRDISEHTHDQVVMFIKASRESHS

LRRC7, Q96NW7 = target: T10, LRRC7, Q96NW7
T10 sequence (Q96NW7 1440-1537, limits assumed, looked up): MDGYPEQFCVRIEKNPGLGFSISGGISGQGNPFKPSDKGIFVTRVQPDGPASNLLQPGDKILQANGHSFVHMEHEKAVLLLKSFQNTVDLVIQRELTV

SCRIB_1, Q14160 = target: SCRIB_1, Q14160
Sequence of SCRIB_1, Q14160 (Q14160 718-814): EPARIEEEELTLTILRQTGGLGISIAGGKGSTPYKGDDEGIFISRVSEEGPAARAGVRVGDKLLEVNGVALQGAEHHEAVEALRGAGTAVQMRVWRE

[1] = plain residues with an end cap or a label only (N-terminal biotin on a linker: ttds)
[2] = plain residues with an end cap or a label only (N-terminal biotin on a linker: ahx)

Sequence of TJP2_1, Q9UDY2 (Q9UDY2 24-128): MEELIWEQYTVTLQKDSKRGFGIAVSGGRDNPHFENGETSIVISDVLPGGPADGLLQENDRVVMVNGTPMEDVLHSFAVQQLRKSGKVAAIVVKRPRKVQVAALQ
Sequence of IL16_4, Q14005 (Q14005 1229-1329): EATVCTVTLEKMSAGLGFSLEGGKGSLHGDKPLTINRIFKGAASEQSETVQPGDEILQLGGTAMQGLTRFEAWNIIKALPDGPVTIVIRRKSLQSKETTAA

With SKPTRRETEV [HPV35-E6, P27228] the pKd (SNX27, Q96L92; [1]) was 4.66, the pKd (IL16_4, Q14005; [1]) was “below the threshold” and the pKd (TJP2_1, Q9UDY2; [1]) was “below the threshold”. For the same binder, the pKd (PDZD2_2, O15018; [1]) was 3.78, the pKd (GRIP2_4, Q9C0E4; [1]) was “below the threshold” and the pKd (HTRA3, P83110; [1]) was “below the threshold”. The pKd (LNX2_3, Q8N448; [1]) was “below the threshold”, the pKd (GRIP2_6, Q9C0E4; [1]) was “below the threshold” and the pKd (PARD3_3, Q8TEW0; [1]) was “below the threshold”. For the same binder, the pKd (SYNJ2BP, P57105; [1]) was 5.69, the pKd (MAST2, Q6P0Q8; [1]) was 5.09 and the pKd (GRID2IP_2, A4D2P6; [1]) was “below the threshold”. The pKd (GRIP1_4, Q9Y3R0; [1]) was “below the threshold”, the pKd (DLG3_1, Q92796; [1]) was 4.45 and the pKd (MAGI1_1, Q96QZ7; [1]) was “below the threshold”. For the same binder, the pKd (LNX1_2, Q8TBB1; [1]) was “below the threshold”, the pKd (DFNB31_1, Q9P202; [1]) was “below the threshold” and the pKd (ARHGEF11, O15085; [1]) was 4.11. The pKd (NHERF4_4, Q86UT5; [1]) was “below the threshold”, the pKd (IL16_1, Q14005; [1]) was “below the threshold” and the pKd (FRMPD3, Q5JV73; [1]) was “below the threshold”. The pKd (DLG4_2, P78352; [1]) was 5.51, the pKd (MAGI3_2, Q5TCQ9; [1]) was 5.39 and the pKd (APBA3_1, O96018; [1]) was “below the threshold”. The pKd (PTPN3, P26045; [1]) was 4.93, the pKd (LRRC7, Q96NW7; [1]) was 3.59 and the pKd (SCRIB_1, Q14160; [1]) was 4.56.

For ESLLLGPSNF [SHROOM4, Q9ULL8], the pKd (SNX27, Q96L92; [2]) was “below the threshold”, the pKd (IL16_4, Q14005; [2]) was “below the threshold” and the pKd (TJP2_1, Q9UDY2; [2]) was “below the threshold”. The pKd (PDZD2_2, O15018; [2]) was “below the threshold”, the pKd (GRIP2_4, Q9C0E4; [2]) was “below the threshold” and the pKd (HTRA3, P83110; [2]) was “below the threshold”. The pKd (LNX2_3, Q8N448; [2]) was “below the threshold”, the pKd (GRIP2_6, Q9C0E4; [2]) was “below the threshold” and the pKd (PARD3_3, Q8TEW0; [2]) was “below the threshold”. The pKd (SYNJ2BP, P57105; [2]) was “below the threshold”, the pKd (MAST2, Q6P0Q8; [2]) was “below the threshold” and the pKd (GRID2IP_2, A4D2P6; [2]) was “below the threshold”. The pKd (GRIP1_4, Q9Y3R0; [2]) was “below the threshold”, the pKd (DLG3_1, Q92796; [2]) was “below the threshold” and the pKd (MAGI1_1, Q96QZ7; [2]) was “below the threshold”. For the same binder, the pKd (LNX1_2, Q8TBB1; [2]) was “below the threshold”, the pKd (DFNB31_1, Q9P202; [2]) was “below the threshold” and the pKd (ARHGEF11, O15085; [2]) was “below the threshold”. For the same binder, the pKd (NHERF4_4, Q86UT5; [2]) was “below the threshold”, the pKd (IL16_1, Q14005; [2]) was “below the threshold” and the pKd (FRMPD3, Q5JV73; [2]) was “below the threshold”. The pKd (DLG4_2, P78352; [2]) was “below the threshold”, the pKd (MAGI3_2, Q5TCQ9; [2]) was “below the threshold” and the pKd (APBA3_1, O96018; [2]) was “below the threshold”. For the same binder, the pKd (PTPN3, P26045; [2]) was “below the threshold”, the pKd (LRRC7, Q96NW7; [2]) was “below the threshold” and the pKd (SCRIB_1, Q14160; [2]) was “below the threshold”.

QRQARSETLV [HPV59-E6, Q81964] was tested, and the pKd (SNX27, Q96L92; [1]) was 4.64, the pKd (IL16_4, Q14005; [1]) was “below the threshold” and the pKd (TJP2_1, Q9UDY2; [1]) was 3.81. The pKd (PDZD2_2, O15018; [1]) was 4.37, the pKd (GRIP2_4, Q9C0E4; [1]) was “below the threshold” and the pKd (HTRA3, P83110; [1]) was 3.69. For the same binder, the pKd (LNX2_3, Q8N448; [1]) was “below the threshold”, the pKd (GRIP2_6, Q9C0E4; [1]) was “below the threshold” and the pKd (PARD3_3, Q8TEW0; [1]) was “below the threshold”. For the same binder, the pKd (SYNJ2BP, P57105; [1]) was 4.81, the pKd (MAST2, Q6P0Q8; [1]) was 5.03 and the pKd (GRID2IP_2, A4D2P6; [1]) was 3.64. For the same binder, the pKd (GRIP1_4, Q9Y3R0; [1]) was “below the threshold”, the pKd (DLG3_1, Q92796; [1]) was 4.58 and the pKd (MAGI1_1, Q96QZ7; [1]) was “below the threshold”. For the same binder, the pKd (LNX1_2, Q8TBB1; [1]) was 4.25, the pKd (DFNB31_1, Q9P202; [1]) was “below the threshold” and the pKd (ARHGEF11, O15085; [1]) was “below the threshold”. For the same binder, the pKd (NHERF4_4, Q86UT5; [1]) was “below the threshold”, the pKd (IL16_1, Q14005; [1]) was “below the threshold” and the pKd (FRMPD3, Q5JV73; [1]) was “below the threshold”. For the same binder, the pKd (DLG4_2, P78352; [1]) was 5.45, the pKd (MAGI3_2, Q5TCQ9; [1]) was 6.07 and the pKd (APBA3_1, O96018; [1]) was “below the threshold”. For the same binder, the pKd (PTPN3, P26045; [1]) was 4.4, the pKd (LRRC7, Q96NW7; [1]) was “below the threshold” and the pKd (SCRIB_1, Q14160; [1]) was 3.82.

SDSSGQEYSL [KCTD3, Q9Y597] was tested, and the pKd (SNX27, Q96L92; [2]) was “below the threshold”, the pKd (IL16_4, Q14005; [2]) was “below the threshold” and the pKd (TJP2_1, Q9UDY2; [2]) was “below the threshold”. The pKd (PDZD2_2, O15018; [2]) was “below the threshold”, the pKd (GRIP2_4, Q9C0E4; [2]) was “below the threshold” and the pKd (HTRA3, P83110; [2]) was “below the threshold”. The pKd (LNX2_3, Q8N448; [2]) was “below the threshold”, the pKd (GRIP2_6, Q9C0E4; [2]) was 3.6 and the pKd (PARD3_3, Q8TEW0; [2]) was 4.58. For the same binder, the pKd (SYNJ2BP, P57105; [2]) was “below the threshold”, the pKd (MAST2, Q6P0Q8; [2]) was 4.53 and the pKd (GRID2IP_2, A4D2P6; [2]) was “below the threshold”. For the same binder, the pKd (GRIP1_4, Q9Y3R0; [2]) was “below the threshold”, the pKd (DLG3_1, Q92796; [2]) was “below the threshold” and the pKd (MAGI1_1, Q96QZ7; [2]) was “below the threshold”. The pKd (LNX1_2, Q8TBB1; [2]) was “below the threshold”, the pKd (DFNB31_1, Q9P202; [2]) was “below the threshold” and the pKd (ARHGEF11, O15085; [2]) was 3.98. For the same binder, the pKd (NHERF4_4, Q86UT5; [2]) was “below the threshold”, the pKd (IL16_1, Q14005; [2]) was “below the threshold” and the pKd (FRMPD3, Q5JV73; [2]) was 3.7. For the same binder, the pKd (DLG4_2, P78352; [2]) was “below the threshold”, the pKd (MAGI3_2, Q5TCQ9; [2]) was “below the threshold” and the pKd (APBA3_1, O96018; [2]) was “below the threshold”. The pKd (PTPN3, P26045; [2]) was 4.14, the pKd (LRRC7, Q96NW7; [2]) was “below the threshold” and the pKd (SCRIB_1, Q14160; [2]) was “below the threshold”.
